# Substitutions are numbered along the chain they refer to. Where two headings read alike, the source gives them in different places.
# T1: biotinylated extracellular domain of human CD123 (SEQ ID NO: 88), Fc and Avi tagged (human, UniProt P26951 19-303, biotinylated with BirA-GST (Avi tag))
# T1 construct: also called hCD123
# T1 sequence: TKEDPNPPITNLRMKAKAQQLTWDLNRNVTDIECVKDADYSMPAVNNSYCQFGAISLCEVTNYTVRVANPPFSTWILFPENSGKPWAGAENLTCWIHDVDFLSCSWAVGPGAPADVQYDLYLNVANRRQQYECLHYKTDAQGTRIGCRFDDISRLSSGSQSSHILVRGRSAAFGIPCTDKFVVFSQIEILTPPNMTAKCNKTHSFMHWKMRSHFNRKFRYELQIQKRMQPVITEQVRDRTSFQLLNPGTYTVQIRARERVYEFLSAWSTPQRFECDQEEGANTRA
# T2: extracellular domain of human CD70 (SEQ ID NO: 89), hCD70-Fc-trimer, ACRO Biosystems (human, UniProt P32970 52-193, chemically biotinylated where the biotinylated form was used)
# T2 construct: also called human CD70-Fc-trimer; Bio.CD70
# T2 sequence: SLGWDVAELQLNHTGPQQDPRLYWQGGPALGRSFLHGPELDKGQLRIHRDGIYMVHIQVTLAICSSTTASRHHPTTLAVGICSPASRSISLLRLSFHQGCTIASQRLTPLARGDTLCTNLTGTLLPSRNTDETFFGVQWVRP
# T3: human scCD3εγ (scCD3εγ_Avi-Bio) (human, biotin on the C-terminal Avi-tag (in vitro, BirA) where the biotinylated form was used)
# T3 construct: Used for all SPR and HTRF results on human CD3; also called recombinant human CD3; human CD3
# T3 chain: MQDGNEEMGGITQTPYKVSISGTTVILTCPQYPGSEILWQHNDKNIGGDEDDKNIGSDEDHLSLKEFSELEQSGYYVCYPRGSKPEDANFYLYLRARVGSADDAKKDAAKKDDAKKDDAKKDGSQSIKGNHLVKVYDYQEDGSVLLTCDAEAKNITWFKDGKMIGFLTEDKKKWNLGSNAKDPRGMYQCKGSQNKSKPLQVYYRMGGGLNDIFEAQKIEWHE
# B1: DARPin® protein #29 (designed binder)
# chain: DLGYKLLQAAYDGQLDEVRILLKAGADVNAKDSRGQTPLHYAASIGHLEIVEVLLKAGADVNAKDDHGWTPLHLAAWSGHLEIVEVLLKAGADVNAQDQEGTTPADLAAVQGHQDIAEVLQKAAGSPTPTPTTPTPTPTTPTPTPTGSDLGVKLLLAASRGQLDEVRILLKAGADVNAKDIDEGYTPLHIAAYYGHLEIVEVLLKAGADVNAKDRYGKTPLHLAAISGHLEIVEVLLKAGADVNAQDDKGDTPADLAADYGHQDIAEVLQKAAGSPTPTPTTPTPTPTTPTPTPTGSDLGQKLLEAAWAGQDDEVRELLKAGADVNAKNSRGWTPLHTAAQTGHLEIFEVLLKAGADVNAKDDKGVTPLHLAAALGHLEIVEVLLKAGADVNAQDSWGTTPADLAAKYGHEDIAEVLQKAA
# notes: CD70-CD33-CD3; not shown: N-terminal His-tag
# B2: DARPin® protein 11 (designed binder)
# single chain: DLGKKLLEAARAGQDDEVRELLKAGADVNAKDYFSHTPLHLAARNGHLKIVEVLLKAGADVNAKDFAGKTPLHLAAADGHLEIVEVLLKAGADVNAQDIFGKTPADIAADAGHEDIAEVLQKAAGSPTPTPTTPTPTPTTPTPTPTGSDLGKKLLEAARAGQDDEVRILMANGADVNALDWLGHTPLHLAAYEGHLEIVEVLLKNGADVNAIDDNNGFTPLHLAAIDGHLEIVEVLLKNGADVNAQDKFGKTAFDISIDNGNEDLAEILQKAAGSPTPTPTTPTPTPTTPTPTPTGSDLGDKLLLAATSGQDDEVRILLAAGADVNAKDYDGDTPLHLAADEGHLEIVEVLLKAGADVNAKDYSGSTPLHAAAAYGHLEIVEVLLKAGADVNAQDVFGYTPADLAAYVGHEDIAEVLQKAAGSPTPTPTTPTPTPTTPTPTPTGSDLGQKLLEAAWAGQDDEVRELLKAGADVNAKDSQGWTPLHTAAQTGHLEIFEVLLKAGADVNAKDDKGVTPLHLAAALGHLEIVEVLLKAGADVNAQDSWGTTPADLAAKYGHEDIAEVLQKAA
# notes: half-life extended format of DARPin® protein #7; also called HSA-CD123-CD33-CD3
# B3: DARPin® protein #14 (designed binder)
# chain: B2 single chain with D460L, E465I, D477N, Q479R, D510T, D511N, G513R, Q542R, S544T, E559R
# notes: HSA-CD123-CD33-CD3, half-life extended form of #10; not shown: His-tag implied by anti-penta-His detection
# B4: DARPin® protein #8 (designed binder)
# chain: DLGKKLLEAARAGQDDEVRILMANGADVNALDWLGHTPLHLAAYEGHLEIVEVLLKNGADVNAIDDNNGFTPLHLAAIDGHLEIVEVLLKNGADVNAQDKFGKTAFDISIDNGNEDLAEILQKAAGSPTPTPTTPTPTPTTPTPTPTGSDLGDKLLLAATSGQDDEVRILLAAGADVNAKDYDGDTPLHLAADEGHLEIVEVLLKAGADVNAKDYSGSTPLHAAAAYGHLEIVEVLLKAGADVNAQDVFGYTPADLAAYVGHEDIAEVLQKAAGSPTPTPTTPTPTPTTPTPTPTGSDLGQKLLEAAWAGQDDEVRELLKAGADVNAKNSRGWTPLHTAAQTGHLEIFEVLLKAGADVNAKDDKGVTPLHLAAALGHLEIVEVLLKAGADVNAQDSWGTTPADLAAKYGHEDIAEVLQKAA
# notes: CD123-CD33-CD3 ankyrin repeat protein, no half-life extension; also called DARPin® #8; not shown: N-terminal His-tag
# B5: DARPin® protein #7 (designed binder)
# chain: B4 chain with N329D, R331Q
# notes: CD123-CD33-CD3 ankyrin repeat protein, no half-life extension; also called DARPin® #7; not shown: N-terminal His-tag
# Assays:
# [1] = biological target: T4, human CD3 on primary human pan-T cells (human, UniProt P07766 23-207; P09693 23-182; P04234 22-171; P20963 22-164); assay: Mirrorball cytometry on primary human pan-T cells, 600 µM HSA
# T4 construct: whole, on cells; Native complex on T cells isolated from PBMC; also called CD3 on Pan-T cells
# Experimental: (§1) The determination of T cell binding was performed with primary human T cells using Mirrorball laser scanning imaging cytometry. Therefore, primary T cells were isolated from human peripheral blood mononuclear cells (PBMCs) using a pan-T cell purification kit (Miltenyi Biotec). A titration of DARPin® protein #27, DARPin® protein #28 and DARPin® protein #29 and DARPin® protein #30 were incubated with 50′000 pan-T cells per well in presence of 600 μM human serum albumin (to mimic physiological serum concentration) for 30 minutes at 4° C. Two benchmark T-cell engagers, AMG330 and flotetuzumab were applied as controls, targeting CD33 or CD123. After washing, CD3 binding was detected by 1:100-diluted anti-penta-His Alexa Fluor 488 antibody (Qiagen). After 30 min incubation at 4° C., cells were washed and resuspended in Cytofix fixation buffer (BD Biosciences) and counterstained by 5 μM DRAQ5 (Abcam) for 15 min at RT. Median of mean fluorescence intensities of Alexa Fluor 488 binding on far-red counterstained cells were measured by Mirrorball using Cellista software (SPT Labtech) and data was plotted using GraphPad Prism 8.
# [2] = biological target: T5, human serum albumin (human, UniProt P02768 25-609); assay: SPR (ProteOn XPR36), target on GLC chip
# T5 construct: also called HSA; SA
# Description: (§2) For that, DARPin® protein #27, DARPin® protein #29, DARPin® protein #47 and DARPin® protein #48 and DARPin® protein #49, DARPin® protein #50, DARPin® protein #51, DARPin® protein #52, DARPin® protein #31, DARPin® protein #53, DARPin® protein #54, DARPin® protein #55, DARPin® protein #34, DARPin® protein #33, DARPin® protein #39 and DARPin® protein #36 were subcloned and expressed as described above into derivatives of the pQE30 (Qiagen) expression vector, containing an N-terminal His-tag, CD33, CD123 and/or CD70 binding ankyrin repeat domains, followed by a CD3 specific ankyrin repeat domain and for some constructs by a human serum albumin specific ankyrin repeat domain.
# (§3) Briefly, biotinylated human CD70, CD123 and CD33 was diluted in PBST (PBS, pH 7.4 containing 0.005% Tween 20®) and coated on a GLC chip (BioRad) to a level of around 200, 460 and 450 resonance units (RU) respectively. HSA in NaOAc pH 5.0 was directly immobilized on the GLC chip to a level of 800 RU. Bio.CD70, bio. CD33 and bio. CD123 required to have Neutravidin coated first to a level of 6000 RU before the biotinylated targets could be applied. The interaction of the selected ankyrin repeat proteins and human CD70, CD123 and CD33 was then measured by injecting 300 μl running buffer (PBS, pH 7.4 containing 0.005% Tween 20®) containing serial dilutions of ankyrin repeat proteins covering a concentration range between 100 nM and 2.6 nM (100, 40, 16, 6.4 and 2.6 nM respectively) for multi-trace SPR measurements, with an association of 120 s and dissociation of 1200 s using a constant flow of 100 μl/min. The regeneration was performed using 30 μl of 4 mM Glycine pH 2. The signals (i.e. resonance unit (RU) values) of the interspots and a reference injection (i.e. injection of running buffer only) were subtracted from the RU traces obtained after injection of ankyrin repeat protein (double-referencing).
# [3] = biological target: T1, biotinylated extracellular domain of …; assay: SPR (ProteOn XPR36), target on GLC chip
# Description: as §2, §3
# [4] = biological target: T2, extracellular domain of human CD70 (SEQ …); assay: SPR (ProteOn XPR36), target on GLC chip, DARPin as analyte
# [5] = biological target: T6, biotinylated extracellular domain of human CD33 (SEQ ID NO: 87), Fc and Avi tagged (human, UniProt P20138 18-259, biotinylated with BirA-GST (Avi tag)); assay: as above
# T6 construct: also called hCD33; human target hCD33
# [6] = biological target: T4, human CD3 on primary human pan-T cells; assay: Mirrorball laser scanning cytometry on primary human pan-T cells, anti-penta-His Alexa Fluor 488 detection, 600 µM HSA
# Experimental: as §1, with “of CD3” for “of T cell”, “protein #7,” for “protein #27,”, “protein #8” for “protein #28”, “protein #9” for “protein #29”, “protein #10, formatted into a trispecific format (including CD33 and CD123 binding ankyrin repeat domains), DARPin® protein #11, DARPin® protein #12, DARPin® protein #13 and DARPin® protein #14 UN tetraspecific format (including an additional ankyrin repeat domain binding specifically to human serum albumin)” for “protein #30”
# [7] = biological target: T3, human scCD3εγ (scCD3εγ_Avi-Bio); assay: SPR (ProteOn), biotinylated scCD3εγ on NLC chip, DARPin as analyte
# Experimental: The binding affinities of four purified ankyrin repeat proteins on recombinant human CD3 target were analyzed using a ProteOn instrument (BioRad) and the measurement was performed according standard procedures known to the person skilled in the art. For that, DARPin® protein #7, DARPin® protein #8 and DARPin® protein #9 and DARPin® protein #10 of the invention were subcloned and expressed as described above into derivatives of the pQE30 (Qiagen) expression vector, containing an N-terminal His-tag, CD33 and CD123 binding ankyrin repeat domains, followed by one of the four CD3 specific ankyrin repeat protein constructs.
# Briefly, biotinylated human scCD3εγ was diluted in PBST (PBS, pH 7.4 containing 0.005% Tween 200) and coated on a NLC chip (BioRad) to a level of around 700-1400 resonance units (RU). The interaction of ankyrin repeat protein and human CD3 was then measured by injecting 300 μl running buffer (PBS, pH 7.4 containing 0.005% Tween 200) containing serial dilutions of ankyrin repeat proteins covering a concentration range between 64 nM and 4 nM for multi-trace SPR measurements, followed by a running buffer flow for at least 10 minutes at a constant flow rate of 60 μl/min (off-rate measurement). The regeneration was performed using 30 μl of 10 mM Glycine pH 2. The signals (i.e. resonance unit (RU) values) of the interspots and a reference injection (i.e. injection of running buffer only) were subtracted from the RU traces obtained after injection of ankyrin repeat protein (double-referencing). While binding was too weak for DARPin® protein #7, binding parameters (KD, on-rate, off-rate) against CD3 were determined for affinity matured constructs. On-rates (kₒₙ) and dissociation constants (KD) are given only as approximation because binding equilibrium was not appropriately reached even at highest samples concentration, leading to non-optimal fits for on-rates.
# Dissociation constants (KD) were calculated from the estimated on- and off-rates using standard procedures known to the person skilled in the art.
# [8] = biological target: T4, human CD3 on primary human pan-T cells; assay: Mirrorball cytometry on primary human pan-T cells, 600 µM HSA; remark: listed apart in the source
# Experimental: as §1, with “of CD3” for “of T cell”, “protein #7,” for “protein #27,”, “protein #8” for “protein #28”, “protein #9” for “protein #29”, “protein #10, formatted into a trispecific format (including CD33 and CD123 binding ankyrin repeat domains), DARPin® protein #11, DARPin® protein #12, DARPin® protein #13 and DARPin® protein #14 UN tetraspecific format (including an additional ankyrin repeat domain binding specifically to human serum albumin)” for “protein #30”
# T4 sequence (P07766 23-207, chain 1 of 4): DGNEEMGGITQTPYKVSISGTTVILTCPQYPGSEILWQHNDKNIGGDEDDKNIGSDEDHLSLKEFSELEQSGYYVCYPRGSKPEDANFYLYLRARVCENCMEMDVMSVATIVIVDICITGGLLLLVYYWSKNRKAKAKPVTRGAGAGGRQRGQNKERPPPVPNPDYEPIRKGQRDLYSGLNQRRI
# T4 sequence (P09693 23-182, chain 2 of 4): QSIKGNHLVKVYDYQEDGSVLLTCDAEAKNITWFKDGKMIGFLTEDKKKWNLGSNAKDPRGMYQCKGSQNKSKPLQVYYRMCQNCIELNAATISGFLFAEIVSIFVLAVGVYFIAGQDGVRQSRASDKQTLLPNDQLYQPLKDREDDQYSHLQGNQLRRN
# T4 sequence (P04234 22-171, chain 3 of 4): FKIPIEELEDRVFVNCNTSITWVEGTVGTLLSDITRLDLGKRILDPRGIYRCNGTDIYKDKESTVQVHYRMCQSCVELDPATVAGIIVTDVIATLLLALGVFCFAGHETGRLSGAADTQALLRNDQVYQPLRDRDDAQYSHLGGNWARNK
# T4 sequence (P20963 22-164, chain 4 of 4): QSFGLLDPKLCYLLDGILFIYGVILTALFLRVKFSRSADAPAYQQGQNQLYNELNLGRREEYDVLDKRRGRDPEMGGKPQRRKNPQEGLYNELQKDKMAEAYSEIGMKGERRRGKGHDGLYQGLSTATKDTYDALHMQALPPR
# T6 sequence (P20138 18-259 R69G): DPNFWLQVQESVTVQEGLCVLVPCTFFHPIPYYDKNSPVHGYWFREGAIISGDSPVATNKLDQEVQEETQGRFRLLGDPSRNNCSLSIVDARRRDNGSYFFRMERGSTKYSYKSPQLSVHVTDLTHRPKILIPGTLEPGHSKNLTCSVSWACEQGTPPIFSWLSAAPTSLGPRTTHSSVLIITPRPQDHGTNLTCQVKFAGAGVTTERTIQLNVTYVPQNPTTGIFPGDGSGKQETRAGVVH
# T5 sequence (P02768 25-609 limits assumed): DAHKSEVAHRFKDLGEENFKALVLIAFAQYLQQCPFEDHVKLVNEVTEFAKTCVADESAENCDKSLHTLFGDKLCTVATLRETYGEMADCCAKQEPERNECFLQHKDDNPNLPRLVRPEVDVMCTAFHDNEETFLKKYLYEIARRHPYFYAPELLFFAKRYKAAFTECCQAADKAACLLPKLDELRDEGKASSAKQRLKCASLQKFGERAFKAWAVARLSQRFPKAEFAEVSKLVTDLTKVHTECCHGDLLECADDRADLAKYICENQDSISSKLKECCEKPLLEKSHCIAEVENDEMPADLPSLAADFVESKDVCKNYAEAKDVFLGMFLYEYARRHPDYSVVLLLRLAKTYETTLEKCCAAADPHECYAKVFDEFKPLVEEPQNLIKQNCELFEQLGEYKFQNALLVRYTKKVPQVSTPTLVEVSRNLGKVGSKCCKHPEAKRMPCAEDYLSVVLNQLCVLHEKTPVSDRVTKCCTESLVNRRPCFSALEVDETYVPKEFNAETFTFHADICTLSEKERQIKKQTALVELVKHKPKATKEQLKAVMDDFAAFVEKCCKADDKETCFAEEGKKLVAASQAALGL
binder,measurement,setting,value
B1,EC50,[1],1.97 nM
same,binding result,[2],no binding (tested: 100 nM (highest concentration))
same,binding result,[3],no binding (tested: 100 nM (highest concentration))
same,Kd,[4],0.18 nM
same,Kd,[5],4.8 nM
B2,binding result,[6],no binding (tested: about 3000 nM)
B3,EC50 (read off the curve),[6],~20 nM
B4,Kd,[7],~35 nM
same,koff,[7],0.0015 s⁻¹
same,kon,[7],~49000 M⁻¹ s⁻¹
same,EC50,[8],250 to 400 nM
B5,binding result,[6],no binding

# From patent US20240254229A1 (Molecular Partners, published 2024)
